In article PMC11931385, “Structural and functional analysis of cancer-associated missense variants in the retinoblastoma protein pocket domain” (The Journal of Biological Chemistry, 2025):
Substitutions are numbered along the chain they refer to. In names and notes the source's numbering stands. No end group written: not given here. TMR = tetramethyl rhodamine dye

T1: Rb^P M546I (human, UniProt P06400 380-788, M546I)
T1 construct: also called variant 25
T1 sequence (looked up): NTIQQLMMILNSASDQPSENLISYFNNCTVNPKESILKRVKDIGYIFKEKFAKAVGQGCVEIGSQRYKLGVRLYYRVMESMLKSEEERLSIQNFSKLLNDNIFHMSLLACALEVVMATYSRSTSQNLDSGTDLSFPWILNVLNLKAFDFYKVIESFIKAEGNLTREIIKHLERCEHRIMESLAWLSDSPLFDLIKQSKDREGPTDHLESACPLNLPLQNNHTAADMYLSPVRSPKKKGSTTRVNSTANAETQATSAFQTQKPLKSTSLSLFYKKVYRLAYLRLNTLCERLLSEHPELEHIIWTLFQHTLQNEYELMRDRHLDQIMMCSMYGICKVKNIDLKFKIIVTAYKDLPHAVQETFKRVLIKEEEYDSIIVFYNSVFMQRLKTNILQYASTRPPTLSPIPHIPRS

T2: Rb^P E554K (human, UniProt P06400 380-788, E554K)
T2 construct: also called variant 28
T2 sequence (looked up): T1 sequence (looked up) with I167M, E175K

T3: Rb^P I703F (human, UniProt P06400 380-788, I703F)
T3 construct: also called variant 64
T3 sequence (looked up): T1 sequence (looked up) with I167M, I324F

T4: Rb^P I703V (human, UniProt P06400 380-788, I703V)
T4 construct: also called variant 65
T4 sequence (looked up): T1 sequence (looked up) with I167M, I324V

T5: Rb^P S751Y (human, UniProt P06400 380-788, S751Y)
T5 construct: also called variant 72
T5 sequence (looked up): T1 sequence (looked up) with I167M, S372Y

B1: TMR-E2F1^TD, peptide of the E2F1 transactivation domain (peptide)
peptide: {TMR}-GEGIRDLFDCDFGDLTPLD
notes: also called E2F^TD; source: synthetic peptide, bought: GenScript
B2: TMR-E7^LxCxE, LxCxE peptide of the E7 oncoprotein from HPV (peptide)
peptide: DLYCYEQLN
modifications: also: TMR label, position not given here
notes: source: synthetic peptide, bought: GenScript

What was measured:
Experiment in all cases: fluorescence polarisation; 25 °C; unlabeled Rb^P titrated against 1.5 nM TMR-E2F1^TD or 7.5 nM TMR-E7^LxCxE; 25 mM Tris pH 8.0, 200 mM NaCl, 1 mM DTT, 0.1% Tween-20; 2 min incubation; quadratic fit; apparent Kd for the variants, Kd for WT
Conditions in all cases: both partners purified
Rb^P M546I = target: T1, Rb^P M546I
Rb^P E554K = target: T2, Rb^P E554K
Rb^P I703F = target: T3, Rb^P I703F
Rb^P I703V = target: T4, Rb^P I703V
Rb^P S751Y = target: T5, Rb^P S751Y

| Binder | Kd (Rb^P M546I) | Kd (Rb^P E554K) | Kd (Rb^P I703F) | Kd (Rb^P I703V) | Kd (Rb^P S751Y) |
| --- | --- | --- | --- | --- | --- |
| B1 | 13 nM | 1170 nM | 63 nM | 20 nM | 33 nM |
| B2 | 7 nM | 12 nM | 16 nM | 21 nM | 127 nM |
